From article PMC13623948, “Steric Gating Contributes to the Preferential Ubiquitin Charging of BIRC6 by UBA6 versus UBA1” (Nature Communications, 2026)

Molecular target: T1, human UBA6 (full-length, amino acid residues 1-1052) (human, UniProt A0AVT1 1-1052)
T1 construct: UBA6, human, Uniprot entry A0AVT1, full-length, residues 1-1052; The cloning methods name only the N-terminal 3×FLAG tag; the BLI methods say that His-tagged ligands were captured on anti-Penta-His sensors; also called UBA6^WT
T1 sequence (looked up): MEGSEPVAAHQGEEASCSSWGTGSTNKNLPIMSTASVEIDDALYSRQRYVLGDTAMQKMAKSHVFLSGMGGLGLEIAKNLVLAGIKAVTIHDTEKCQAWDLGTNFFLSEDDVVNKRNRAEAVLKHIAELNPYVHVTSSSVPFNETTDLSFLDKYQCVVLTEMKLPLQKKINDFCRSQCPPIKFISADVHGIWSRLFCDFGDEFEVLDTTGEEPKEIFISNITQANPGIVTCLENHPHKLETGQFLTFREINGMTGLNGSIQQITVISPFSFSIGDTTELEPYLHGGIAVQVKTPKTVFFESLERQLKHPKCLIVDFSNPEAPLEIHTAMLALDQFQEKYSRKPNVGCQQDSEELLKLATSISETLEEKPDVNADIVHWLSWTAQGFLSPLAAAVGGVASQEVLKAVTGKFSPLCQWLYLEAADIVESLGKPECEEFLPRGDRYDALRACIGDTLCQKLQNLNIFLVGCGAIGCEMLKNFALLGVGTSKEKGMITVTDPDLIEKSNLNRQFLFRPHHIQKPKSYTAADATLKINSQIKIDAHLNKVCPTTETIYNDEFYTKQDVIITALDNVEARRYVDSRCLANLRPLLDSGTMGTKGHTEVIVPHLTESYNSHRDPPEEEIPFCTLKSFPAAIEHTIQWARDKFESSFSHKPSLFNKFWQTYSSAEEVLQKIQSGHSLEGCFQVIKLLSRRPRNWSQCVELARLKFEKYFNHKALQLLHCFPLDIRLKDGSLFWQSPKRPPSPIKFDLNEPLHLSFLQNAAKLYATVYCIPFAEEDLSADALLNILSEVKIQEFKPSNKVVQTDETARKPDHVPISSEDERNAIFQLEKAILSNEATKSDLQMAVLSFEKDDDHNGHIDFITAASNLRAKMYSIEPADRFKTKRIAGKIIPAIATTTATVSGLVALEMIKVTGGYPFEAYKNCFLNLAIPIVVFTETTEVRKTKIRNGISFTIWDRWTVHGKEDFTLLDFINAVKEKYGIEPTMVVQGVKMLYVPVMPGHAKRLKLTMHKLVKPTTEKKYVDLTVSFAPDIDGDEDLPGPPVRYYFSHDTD
Test: BLI; His-tagged E1 ligands on Anti-Penta-His (His1K) biosensors; analyte BIRC6^UBC or BIRC6^(UBCΔinsertion loop) at 40-3240 nM; 50 mM HEPES, pH 7.4, 150 mM NaCl, 0.05% Tween-20, 10 mM imidazole; 25 °C; steady-state 1:1 fit
Conditions: both partners purified

B1: UBC domain of BIRC6 (residues 4520-4857) (domain or fragment)
chain: not shown
notes: BIRC6 UBC domain, human, Uniprot entry Q9NR09, residues 4520-4857; also called BIRC6^UBC; WT BIRC6^UBC; source: E. coli BL21 (DE3), purified (Ni-NTA, HRV 3C cleavage, SEC); not shown: His6, N-terminal, cleaved
- Kd: 4.82 µM
